The numbers were not newly measured in PMC4753134, which cites them from elsewhere.

In one data set the target is Met (Homo sapiens) (UniProt P08581).
The target in the next data set is EGFR (Homo sapiens) (UniProt P00533).

Sequence of UniProt P08581 (P08581 25-932): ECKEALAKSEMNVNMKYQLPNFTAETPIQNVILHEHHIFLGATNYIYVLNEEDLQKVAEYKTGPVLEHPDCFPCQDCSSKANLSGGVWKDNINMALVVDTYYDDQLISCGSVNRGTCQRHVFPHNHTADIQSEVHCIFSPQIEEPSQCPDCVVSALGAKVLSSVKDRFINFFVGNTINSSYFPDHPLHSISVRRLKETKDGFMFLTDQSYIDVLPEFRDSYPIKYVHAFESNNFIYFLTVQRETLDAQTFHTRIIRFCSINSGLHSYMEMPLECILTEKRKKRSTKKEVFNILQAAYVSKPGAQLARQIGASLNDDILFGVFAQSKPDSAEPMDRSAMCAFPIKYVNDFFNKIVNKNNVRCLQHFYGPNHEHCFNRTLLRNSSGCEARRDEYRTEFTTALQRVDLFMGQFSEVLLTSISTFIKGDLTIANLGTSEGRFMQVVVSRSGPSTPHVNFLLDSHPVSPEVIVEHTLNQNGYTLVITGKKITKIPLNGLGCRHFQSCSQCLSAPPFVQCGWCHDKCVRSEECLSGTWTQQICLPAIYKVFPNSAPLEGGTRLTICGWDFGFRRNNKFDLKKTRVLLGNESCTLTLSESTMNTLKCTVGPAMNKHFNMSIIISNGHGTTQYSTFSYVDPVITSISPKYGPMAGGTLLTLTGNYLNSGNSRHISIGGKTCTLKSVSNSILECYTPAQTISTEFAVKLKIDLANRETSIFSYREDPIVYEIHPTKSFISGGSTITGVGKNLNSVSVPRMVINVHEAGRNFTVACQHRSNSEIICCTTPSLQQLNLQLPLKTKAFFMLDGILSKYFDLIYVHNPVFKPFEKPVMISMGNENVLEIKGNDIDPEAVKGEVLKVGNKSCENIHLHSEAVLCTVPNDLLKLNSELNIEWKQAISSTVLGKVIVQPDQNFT

What is called Kd is the equilibrium constant for the complex coming apart. On to decorin (from UniProt P07585), for which the Kd is 2 nM with Met (Homo sapiens) and 87 nM with EGFR (Homo sapiens).
